IC50 and Kd data for 23 sequences are collected here from the Immune Epitope Database (IEDB).

One test deals with HLA-A*02:01. The experiment in a line: IEDB peptide-MHC binding, purified MHC/competitive/fluorescence; ≥ and ≤ were set here for values at or beyond the usual limits of such assays.
The next test addresses HLA-A*23:01. Put plainly: IEDB peptide-MHC binding, purified MHC/competitive/radioactivity; filed as Kd, often an IC50 or EC50 that approximates it; ≥ and ≤ were set here for values at or beyond the usual limits of such assays.
The next test deals with HLA-A*01:01. The test is described as above.
The target in the next test is HLA-A*26:01. The test is described as above.
Another test deals with HLA-A*30:02. The description is as above.
For another test, the target named is HLA-A*29:02. The description is as above.
The target in another test is HLA-A*24:02. The description is as above.
In a further test the target is HLA-B*44:03. The test is described as above.
The mark [1] stands for this setting: source organism: Zaire ebolavirus.
The mark [2] stands for this setting: source organism: SARS coronavirus Tor2.
The mark [3] stands for this setting: source organism: Dengue virus 1 Brazil/97-11/1997.
Where [4] appears, read: source organism: Mammarenavirus lassaense.
Where [5] appears, read: source organism: Lymphocytic choriomeningitis virus (strain Armstrong).
Setting [6] is: source organism: Lassa virus GA391.
[7] abbreviates: source organism: Mammarenavirus machupoense.

In the test with HLA-A*02:01 (setting [1]), DFLLQRWGG yielded a 50% inhibitory concentration (IC50) of 16.8 µM.

Take DKIDQIIHD: the IC50 with HLA-A*02:01 (setting [1]) was no less than 387 µM.

In the case of FVSLAIDAY, the Kd in the test with HLA-A*23:01 (setting [2]) is no less than 28.8 µM; in the test with HLA-A*01:01 (setting [2]), 2.45 µM; with HLA-A*26:01 (setting [2]) it was 1.73 µM; in the test with HLA-A*30:02 (setting [2]), 0.897 µM; with HLA-A*29:02 (setting [2]) it was 0.0216 µM; with HLA-A*24:02 (setting [2]), 17.3 µM.

For NELNHILLE, the Kd with HLA-B*44:03 (setting [3]) was determined as 15.3 µM.

For the sequence FSSRMYCSFY, the Kd is no less than 42.4 µM with HLA-A*23:01 (setting [2]); 0.00272 µM with HLA-A*01:01 (setting [2]); 0.023 µM with HLA-A*26:01 (setting [2]); 0.00215 µM in the test with HLA-A*30:02 (setting [2]); 0.0402 µM with HLA-A*29:02 (setting [2]); no less than 43.1 µM with HLA-A*24:02 (setting [2]).

With FSNSGADVLY, the Kd with HLA-A*23:01 (setting [2]) is no less than 70 µM; in the test with HLA-A*01:01 (setting [2]), 0.0153 µM; with HLA-A*26:01 (setting [2]), 3.56 µM; with HLA-A*30:02 (setting [2]), 0.00914 µM; in the test with HLA-A*29:02 (setting [2]), 0.0749 µM; with HLA-A*24:02 (setting [2]), no less than 70.3 µM.

As to NLEDLIEWA, the IC50 with HLA-A*02:01 (source organism: Vaccinia virus) is no less than 137 µM.

In the case of MENKAWLVH, in the test with HLA-B*44:03 (source organism: Dengue virus 2 16681-PDK53), the Kd stood at 0.168 µM.

Consider VFHLYLQYI, for which the Kd with HLA-A*23:01 (setting [2]) is 0.566 µM; with HLA-A*01:01 (setting [2]), 0.198 µM; in the test with HLA-A*26:01 (setting [2]), 0.0907 µM; in the test with HLA-A*30:02 (setting [2]) it was no less than 125 µM; with HLA-A*29:02 (setting [2]), no less than 71.4 µM; in the test with HLA-A*24:02 (setting [2]) it was 1.09 µM.

Consider EERDDTLTI, for which the Kd with HLA-B*44:03 (setting [3]) stood at 1.43 µM.

In the case of FYTTTGIGY, the Kd is no less than 60.6 µM with HLA-A*23:01 (setting [2]); 0.242 µM with HLA-A*01:01 (setting [2]); 0.153 µM with HLA-A*26:01 (setting [2]); no less than 93.8 µM with HLA-A*30:02 (setting [2]); no less than 46.2 µM with HLA-A*29:02 (setting [2]); no less than 45.8 µM with HLA-A*24:02 (setting [2]).

For LVINRLGAD, the half-inhibitory concentration (IC50) with HLA-A*02:01 (source organism: Vaccinia virus WR) was no less than 131 µM.

As to PVSIINNAVY, the Kd with HLA-A*23:01 (setting [2]) is no less than 70 µM; in the test with HLA-A*01:01 (setting [2]), 10.4 µM; in the test with HLA-A*26:01 (setting [2]), 1.58 µM; in the test with HLA-A*30:02 (setting [2]) it was 0.601 µM; in the test with HLA-A*29:02 (setting [2]), 0.101 µM; with HLA-A*24:02 (setting [2]), no less than 70.3 µM.

TTFAEGVVA showed an IC50 in the test with HLA-A*02:01 (setting [1]) of 50.2 µM.

TKIDSMFLM registered an IC50 with HLA-A*02:01 (source organism: Variola virus) of 38 µM.

With ICGGTIDAY, the Kd with HLA-A*23:01 (setting [4]) is no less than 77.7 µM; with HLA-A*01:01 (setting [4]) it was no less than 40.2 µM; with HLA-A*26:01 (setting [4]), no less than 77.9 µM; in the test with HLA-A*30:02 (setting [4]) it was 0.0686 µM; with HLA-A*29:02 (setting [4]), no less than 21.8 µM; with HLA-A*24:02 (setting [4]), no less than 77.5 µM.

For the sequence VFNGTSWFI, the Kd with HLA-A*23:01 (setting [2]) is no less than 77.8 µM; with HLA-A*01:01 (setting [2]), no less than 78.1 µM; with HLA-A*26:01 (setting [2]), no less than 77.9 µM; with HLA-A*30:02 (setting [2]) it was no less than 93.8 µM; with HLA-A*29:02 (setting [2]), no less than 45.4 µM; with HLA-A*24:02 (setting [2]) it was no less than 107 µM.

Regarding RYQVVECKEV, the Kd with HLA-A*23:01 (setting [5]) was no less than 70 µM; with HLA-A*01:01 (setting [5]), no less than 70.4 µM; with HLA-A*26:01 (setting [5]), no less than 69.7 µM; with HLA-A*30:02 (setting [5]), 0.159 µM; with HLA-A*29:02 (setting [5]) it was no less than 71.4 µM; with HLA-A*24:02 (setting [5]), no less than 70.3 µM.

For the sequence LDEWSVATFY, the Kd with HLA-A*23:01 (setting [2]) is no less than 47.9 µM; with HLA-A*01:01 (setting [2]) it was 2.38 µM; with HLA-A*26:01 (setting [2]), no less than 21.4 µM; with HLA-A*30:02 (setting [2]), 0.495 µM; in the test with HLA-A*29:02 (setting [2]) it was 0.0952 µM; in the test with HLA-A*24:02 (setting [2]), no less than 32.9 µM.

Take VFRTSTPKVV: the Kd is no less than 70 µM in the test with HLA-A*23:01 (setting [6]); no less than 70.4 µM in the test with HLA-A*01:01 (setting [6]); no less than 69.7 µM with HLA-A*26:01 (setting [6]); no less than 69.7 µM with HLA-A*30:02 (setting [6]); no less than 71.4 µM with HLA-A*29:02 (setting [6]); no less than 70.3 µM in the test with HLA-A*24:02 (setting [6]).

Take HTSGPSVMA: the IC50 with HLA-A*02:01 (source organism: Sudan ebolavirus) was no less than 203 µM.

CEPRSGIDF: in the test with HLA-B*44:03 (source organism: Dengue virus 4 Philippines/H241/1956), the Kd was 0.901 µM.

For the sequence AESLVGFLFY, the Kd in the test with HLA-A*23:01 (setting [7]) was no less than 66.2 µM; with HLA-A*01:01 (setting [7]) it was no less than 52.1 µM; with HLA-A*26:01 (setting [7]) it was no less than 69.7 µM; with HLA-A*30:02 (setting [7]), 0.45 µM; in the test with HLA-A*29:02 (setting [7]) it was 0.0976 µM; in the test with HLA-A*24:02 (setting [7]), no less than 70.3 µM.
